From publication PMC11405398

Molecular target: spore coat protein GerQ (Bacillus amyloiquefaciens)
Assay: cryo-EM structure; native filaments extracted from B. amyloiquefaciens biofilm; helical reconstruction with C9 point group symmetry, rise 34.2 Å, twist −18.4°; 3.3 Å; partially unbundled filaments

stoichiometry N (subunits per ring): 9
Substance: spore coat protein GerQ (natural protein)
